Article PMC4481117

Tests used:
[1] = biological target: D100 fragment of fibrinogen (mol. weight 100,000 Da); test: ELISA; solid-phase binding: wells coated with Dyn A or fibrinogen D100 overnight at 4 °C, 3 % BSA; GST-αMI-domains in 20 mM Tris-HCl pH 7.4, 100 mM NaCl, 1 mM MgCl2, 1 mM CaCl2, 0.05 % Tween 20, 5 % glycerol, 1.5 h at 22 °C; detected with anti-GST mAb
[2] = biological target: integrin Mac-1 on IC-21 murine macrophages (mouse (endogenous in IC-21)) (UniProt P05555)
[3] = biological target: integrin Mac-1 (αMβ2, CD11b/CD18) on HEK293 cells (UniProt P11215); test: inhibition of cell adhesion; calcein-labeled Mac-1-HEK293 cells preincubated with 1 μg/ml NIF, added to wells coated with 2 μM Dyn A; heparin 10 μg/ml on the coated wells where named; adhesion without inhibitors = 100 %

Chain of integrin Mac-1 on IC-21 murine macrophages (mouse (endogenous in IC-21)) (P05555 17-1153, chain 1 of 2): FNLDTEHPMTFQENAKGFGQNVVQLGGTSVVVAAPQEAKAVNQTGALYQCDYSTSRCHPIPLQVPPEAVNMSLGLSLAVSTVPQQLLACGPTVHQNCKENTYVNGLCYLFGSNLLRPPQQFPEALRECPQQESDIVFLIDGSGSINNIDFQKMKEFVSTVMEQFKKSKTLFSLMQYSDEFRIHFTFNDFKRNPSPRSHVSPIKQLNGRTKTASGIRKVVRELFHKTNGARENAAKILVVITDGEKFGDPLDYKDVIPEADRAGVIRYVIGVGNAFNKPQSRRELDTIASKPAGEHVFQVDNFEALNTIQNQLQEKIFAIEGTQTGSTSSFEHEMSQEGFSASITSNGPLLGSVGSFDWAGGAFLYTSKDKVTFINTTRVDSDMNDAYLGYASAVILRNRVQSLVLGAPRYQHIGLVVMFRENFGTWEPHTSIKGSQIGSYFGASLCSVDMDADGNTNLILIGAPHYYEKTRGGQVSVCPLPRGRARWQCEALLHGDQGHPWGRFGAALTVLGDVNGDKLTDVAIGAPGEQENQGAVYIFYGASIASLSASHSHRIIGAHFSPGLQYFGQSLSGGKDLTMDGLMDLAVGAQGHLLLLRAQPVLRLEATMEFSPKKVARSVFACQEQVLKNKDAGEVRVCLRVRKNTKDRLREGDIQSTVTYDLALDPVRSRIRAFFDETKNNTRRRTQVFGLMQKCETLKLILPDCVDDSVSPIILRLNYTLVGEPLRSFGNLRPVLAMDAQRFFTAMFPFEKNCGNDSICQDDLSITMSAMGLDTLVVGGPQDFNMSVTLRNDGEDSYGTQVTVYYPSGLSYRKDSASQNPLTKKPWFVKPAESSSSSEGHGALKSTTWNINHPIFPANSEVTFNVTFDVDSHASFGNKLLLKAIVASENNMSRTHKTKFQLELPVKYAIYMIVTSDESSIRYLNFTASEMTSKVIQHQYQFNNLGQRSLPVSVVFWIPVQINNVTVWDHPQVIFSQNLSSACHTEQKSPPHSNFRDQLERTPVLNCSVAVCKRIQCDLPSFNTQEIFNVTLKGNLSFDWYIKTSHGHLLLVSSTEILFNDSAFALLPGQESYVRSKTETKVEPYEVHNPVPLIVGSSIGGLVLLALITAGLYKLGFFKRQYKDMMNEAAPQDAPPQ
Chain of integrin Mac-1 on IC-21 murine macrophages (mouse (endogenous in IC-21)) (P11835 24-771, chain 2 of 2, further chain): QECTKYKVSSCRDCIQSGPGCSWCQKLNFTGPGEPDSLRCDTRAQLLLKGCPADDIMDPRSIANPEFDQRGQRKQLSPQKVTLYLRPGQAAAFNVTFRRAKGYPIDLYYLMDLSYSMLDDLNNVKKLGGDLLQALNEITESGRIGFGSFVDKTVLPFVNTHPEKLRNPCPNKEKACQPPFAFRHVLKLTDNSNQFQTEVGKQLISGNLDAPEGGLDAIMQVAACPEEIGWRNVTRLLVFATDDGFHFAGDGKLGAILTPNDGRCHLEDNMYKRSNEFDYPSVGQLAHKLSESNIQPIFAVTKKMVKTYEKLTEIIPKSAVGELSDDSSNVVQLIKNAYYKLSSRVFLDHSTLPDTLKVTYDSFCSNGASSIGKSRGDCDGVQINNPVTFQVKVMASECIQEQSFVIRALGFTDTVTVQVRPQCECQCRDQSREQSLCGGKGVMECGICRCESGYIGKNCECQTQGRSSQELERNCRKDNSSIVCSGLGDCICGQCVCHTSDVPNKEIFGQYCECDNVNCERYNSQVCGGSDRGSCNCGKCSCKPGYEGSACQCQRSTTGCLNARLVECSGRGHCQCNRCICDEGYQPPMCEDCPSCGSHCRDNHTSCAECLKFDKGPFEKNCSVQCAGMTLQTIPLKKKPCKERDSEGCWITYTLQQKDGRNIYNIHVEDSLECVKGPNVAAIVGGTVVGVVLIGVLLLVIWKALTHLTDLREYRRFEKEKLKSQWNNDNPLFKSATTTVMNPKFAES

## GST-αMI-domain, active conformation (residues Glu123-Lys315) (from UniProt P11215 139-331) (domain or fragment)
[1]
  fold binding over the nonactive αMI-domain: 3.5 fold

## Neutrophil inhibitory factor (NIF) (natural protein)
[2]
  inhibition by NIF (2 μg/ml) of the phagocytosis of Dyn A-coated beads by IC-21 macrophages (blocked pair: Dyn A and Mac-1): 70%
[3]
  percent inhibition of the adhesion of Mac-1-HEK293 cells to Dyn A (2 μM coating): 65%
  percent inhibition of the adhesion of Mac-1-HEK293 cells to Dyn A (2 μM coating), NIF combined with heparin: > 95%
